Experiment: label from the status in PepcDB records
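Further: failed if final PepcDB status was selected cloned or expressed and not failed if soluble or beyond.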

Which protein production does the source give for “MSSWPQERRDSLLELVRKSREIFSSMKPLLRVGDRPRAVFVGDTHGAFMVTKYVFENFSDYDAIVFLGDYVDREPYGLENLEIILSHFVENKDKVIVLRGNHESPLTNEYYGFRAEVREKLGDENYKEFVDLFSEMPYAAIVNNYLCVHGGIARNLKNVQQIEELKKPDIIPEDEIAFEMLWNDPREELDGFVPNIRGEGTFFYGKDVTLEFLKENSLKGIIRGHEVADGFRSEIDERVITVFSSRYHKMRAGILLQDGEKFNMVYLDEEFLLKGDKS” here?
The protein production was “failed”.

With “MSTAGLFSIFLIGIASNLDNAGVGIAYGIRKIRISWFNNFIIAFFGFLFTLLAGFFGNWIALFISEFTANLIGAIVLGIIGVFILCQPFLGQRNTVGSKDGNVLMGILRDPEKADFDGSKTISFSEAIVLGIALSINNIAGGFDAGITNLNLWLTATISGVFSFICISGFAYVGKRFLAEYLGKWATIIAEVLLILIGIDQLL” as the sequence, how does the protein production read?
The protein production was “failed”.

Which protein production does the source give for “MSTDQTPTAAGSGFSYTLTRTLDAPAARVWQAWTTPDQYAQWAYAVPGSVEMDVRPGGTWKATMRTPDGTEFPLTGSYIEVAEHRALTIGMNVPGRPDPATMTVELAEEGPRNTVITLRQTCDTAEERDGAEQGSGMLLDGLTGFLAGGKQG” here?
Its protein production is “failed”.

Which protein production does the source give for “MSTEKIINLAAYAGKILLQSGAEIYRVEETMNKICTAFNVKEAESFVTPTGIIISITGEDEKITSTIKRIQVRTVDLRKISEVNDLSRTLQYKNFSLEEVADKLKKIDNEKKHSDLFLIFFSAVAAGFFTLIFGGTFRDFSVSFFIGIIIKIFSIIISRLEINDFFLNMVGGAIAAFIALLFKKLGVVVYLDKTIIGSIMLLVPGLAITNAVRDTIAGDLVSGVSRALDAFFTAVAIAAGTGLVFKIWINFFGGTGL” here?
The protein production was “failed”.

For “MSTELIAAVEAADSAEGLVRAVAALSAARTDAAIPTLISVLAFNNPGAAVVAVDGLIQLGSPAAQAILNNLDDYNYGARAWALRALAGIGEPAALPLLLSAAREDFSLSVRRAATYGLGRVRWADLSESDRLAQQQQCYETLKLCLQYDPEWVVRYAAAAALETLAPAATQLQSAIAETLNRQAHSDEERAVQARSRLAERRLAGGVLEHHHHHH”, which protein production is on record?
The protein production was “not failed”.

With “MSTHVTFDYSKALSFIGEHEITYLRDAVKVTHHAIHEKTGAGNDFLGWVDLPLQYDKEEFARIQKCAEKIKNDSDILLVVGIGGSYLGARAAIEMLNHSFYNTLSKEQRKTPQVLFVGQNISSTYMKDLMDVLEGKDFSINVISKSGTTTEPALAFRIFRKLLEEKYGKEEARKRIYATTDKARGALKTLADNEGYETFVIPDDVGGRFSVLTPVGLLPIAVSGLNIEEMMKGAAAGRDDFGTSELEENPAYQYAVVRNALYNKGKTIEMLINYEPALQYFAEWWKQLFGESEGKDQKGIFPSSANFSTDLHSLGQYVQEGRRDLFETVLKVGKSTHELTIESEENDLDGLNYLAGETVDFVNTKAYEGTLLAHSDGGVPNLIVNIPELNEYTFGYLVYFFEKACAMSGYLLGVNPFDQPGVEAYKKNMFALLGKPGFEELKAELEERLK” as the sequence, how does the protein production read?
Its protein production is “not failed”.

Which protein production does the source give for “MSTLIQDLKAQAGIFESDADQVHGLLAEFPDPGALLHAAEAVREEGYRHFDTHSPFPIHGMDEAMGLGNASAVGVLTFFGGITGCVVAYLLQWWTAAVDYPLNISGKPFFAVEPSVPIMFELTILFAAFGTVAGMFALNGLPRPYNPLFYSDRFKGATDDRFFLHIAASDDEFDVEDSAAMLQRLGAHHLELVKDDGTVDA” here?
The protein production was “failed”.

Which protein production does the source give for “MSTQFSDKFIQNLKPEAKKYYIRESRGFAIVVHPSGIKNPKGTKTFLYIYTINGKRKELKLGNYPEVTLKDARIKHGEAYARLVNGEDPVTPPVIKAEPQDENLTFGHFTELYLQWSKDNHSPKWHNTIKCALNKDALPVWEYTLIASIKRRDAIAFLENVARRGIQVINLHKATSSVFDYALEREYIESNPMAGLKAKTIPALKPKARERFLSDSEIKHVWKAIDEGPGYDETKRALKLIMVTAQRPGEVAAMHRREIQTGVGKPRCKICKRCGWWTIPAERMKNGEEHRIYLTPTALELIGDAEGYIFPSPQDGQPINRNSLSQLVSRERNNKKPNGEMYPPYYGLPEWTPHDLRRTARTLLARVGVPEEHAEEVLSHKKEGLVDRYNRHDYMEEKKEALIKLEAELMKLSI” here?
The protein production was “failed”.

With “MSTQTSIEWTEMTWNPIVGCTKVSPGCKHCYAENMAHRLQAMGTPGYENGFKLSLRPEKLREPLQRKKPTIYFVNSMSDLFHEKVPDHYIDQVFEVIREATQHTFQILTKRAERLADYFSKRTPPTNAWLGVSVEDKAYGVPRIDCLRRVNATIRFLSAEPLLEDLGEIDLTDIHWVIVGGESGNKARPMQQEWVDNIHRQCDVSGSAFFFKQWGGWGADGVKRSKKANGRLLNGQTWDEIPLLNLALEHHHHHH” as the sequence, how does the protein production read?
Its protein production is “failed”.

Which protein production does the source give for “MSTQYWEEEIEIMSREKLQELQLQRLKKTINIAANSPYYKEVFSKNGITGDSIQSLDDIRKIPFTTKSDMRANYPFGLVAGDMKRDGVRIHSSSGTTGNPTVIVHSQHDLDSWANLVARCLYMVGIRKTDVFQNSSGYGMFTGGLGFQYGAERLGCLTVPAAAGNSKRQIKFISDFKTTALHAIPSYAIRLAEVFQEEGIDPRETTLKTLVIGAEPHTDEQRRKIERMLNVKAYNSFGMTEMNGPGVAFECQEQNGMHFWEDCYLVEIIDPETGEPVPEGEIGELVLTTLDREMMPLIRYRTRDLTRILPGKCPCGRTHLRIDRIKGRSDDMFIIKGVNIFPMQVEKILVQFPELGSNYLITLETVNNQDEMIVEVELSDLSTDNYIELEKIRRDIIRQLKDEILVTPKVKLVKKGSLPQSEGKAVRVKDLRDNK” here?
The protein production was “not failed”.

For “MSTSDPSAERPRDNFIYDIIDEDLEHGTYDGRVVTRFPPEPNGYLHIGHAKSIVLNFGIKHDYADRADTRCHLRFDDTNPDTESTEYVESIKEAVQWLGYDWEEHEYHASDYFEQFYQYAVTLIEQGDAYVDSLSEEEIREYRGTVDEPGTPSPYRDRSVEENLELFRKMRDGEFDDGEHVLRAKIDMSSPHMIMRDPLLFRIKHAHHYRRGDEWCIYPMYDYAHPLEDAIENITHSLCTLEFDNNRRVYDWVMEHCLDENELPSRPRQYEFNRLNLGYTVMSKTKLRHLIEEDLVGGWDDPRLPTISGLRRRGVPPSAIRSFCRTVGVTRSQSRVQIGHFEHALRDDLNAKAPRVMAVLDPLKVVATNVDADAVDWIDANHWPRDIDKDETRPVPFTREFYIERDDFREDPPEDFIRLAPGREVRLRHAYFFTCEEVVRDEDGVVTELRGTIDPETRDSTAPDGRSPEGTLHWVSAAHGLPFEARLYDRLFEVPDPDARDEHFTEFLNPDSLNVRQGVLEPAVRDLEADQRVQFERQGYFWPDPEASRPDALVYNQIVPLRDTWGEDEDGLTQEELARRRRAKEQRKQEQRRRSLDGKTDPAEHLDDAQRDRFDRFHDELGIDREDAATIAGNGALAGFFEQALAHYDAPVPVANWTVNELLGRLQDQTVADLPFGPDAFAELVRLVDTEFISTRGGDAVLDALLEDGGSPERIVDDRGLRQVDDTEALRPTVQSVLDDHPDEVSRYRDGKKGLIGFFMGQVMDATDGAASPELARELLQQELDPSA”, which protein production is on record?
Its protein production is “failed”.

For “MSTSHPISKIYFSDKKSLQKVDILLEQEGIRRDTNLDYICAMFDDDLNIIATGSCFGNTLRCLSVDHHYQGDGLLNEIVTHLINIQFERGNTHLFLYTKPDTAKFFKDLGFYEIARADKQIVFMENKKDGFSNYLKNLEKPDSECQTTAALVINANPFTLGHQYLVEKAAAENELLHLFMVSDDSSLIPFSVRKQLILAGTEHLSNICYHETGPYIISKSIFPSYFQKDQASVIESQARIDLAIFIQIAKYLGIKGRYVGEEPTSLVTGIYNQIMLQELPKQAIDCIVVPRKTYKDGPISASTVRKALKEGNEQILRELLPSTSLNYFLSPEAQPLIKKIQKADNVIHY”, which protein production is on record?
Its protein production is “failed”.

With “MSTSPYEKLSEQEKKQMIKEIQEQAYEALLYAFGVEKKMISDDVKNLLNIEQESAEEKRKMAYEATLLAATFSHSLAKDRDGVLATLKNQLHITDDFHRECQNRVRNNILVVQLTGEASGSNYVGETGWTTLRRISNTIFRF” as the sequence, how does the protein production read?
Its protein production is “failed”.

For “MSTSQTKNVSIDTIKEFMYQVLLKVGSDEENARMVRDTLIAADLRGMDTHGIQRFKTVYIDRIKKGMINPTAKPSIIRETSTTCVLDGNNGFGHVNGTIGMKMAIEKAKKYGMGMVVVRNSTHFGIAGYYSLLAAQEGCIGICGTNARSSVAATFGDEPILGTNPLAIGIPSDEAFPYCFDGATSISPTGRFEKYVRMGKTVDKSWASMKGGKPIEDPKELLENYPKGKAYLHPLGGSDEVSGSHKGYCLSEFVEIMSSCLSIANFLNHIEEEKEKSGKFSLGHFFIAINVECFRDLNEFKKNVGDINRTLRNTDKLPGHDRIYTAGEKEYETEQKRRKFGDDLPLVTINEMKELSSFYNVPLPF”, which protein production is on record?
The protein production was “not failed”.

With “MSTTMKRQGCSSDSGDLRRQPSRLLKRPPALKIVPATPAANNWNTAIPLLSPLALSPESSPVDQPPVEKNQSTAVAVEKTPVFKKWQHPAAPFYYESSTFVPPFVPV” as the sequence, how does the protein production read?
Its protein production is “failed”.

With “MSTTTATLRDAIPDTRSLVTWAAVLNAEFILILGYVVNTAQPATDPFLLVFPFIWLNIAGLVALRVRPELPSRRRTIGSVVIALGYLLVLGYVGGVYGTGGQGTGLRLVTQAPPGFSPTVVFSGATLSVVLIPWKVAGYLALSYLVFVTAVDASGGAVGGIVGLFSCVSCVLPILASILGGFVGVGATLSQAALSQSYGLSTVVFVTSVGLLYGVHRFDVTLVGRLQALVDRP” as the sequence, how does the protein production read?
The protein production was “failed”.

For “MSTYDTAVLDDTLVSCLSQLIGAEHIDTLTLEGRFEITRIAAALSGRPGPAPRAILMSGLQGSGKTTLARALEAAGFRRLCPDEEMFRRYGHYGRDFPRGEFRVREAPVLKDIALELQELLTAGHEVVVDHGFWTREERAQWAMTVMEAGGKPVLIYLPVPHEVRWDRIRKRNEQSLVDANSIEFSEEDLLRHAGRFSPPTDDEPHIVYDGQPDSVLADIQLSRHFDALEHHHHHH”, which protein production is on record?
Its protein production is “failed”.

Which protein production does the source give for “MSVAAEVAQVAQSAIDDFNAAYGLCLDDDRLEQWPTLFVDDCLYQVIARENVDNGLPAAVMYCDSKGMLADRVVALRKANVFPEHFNRHLIGRAVITGVEGDQVSAEASYVVFQTRNDGETRIYNAGKYVDRFDLSGGTVRLKSRTCIYDTLRIATLLATPI” here?
The protein production was “not failed”.

With “MSVAAGGPAGAAIPESRLMALGIIGGLGGIYASTVNPVIGPVFASLGAVCAIIWGADAIRRVASYGLGTGVPSIGYMSVSIGIVGVVAGLASVFTLPALAAPVVGLILAMILGVVVAVLGKKIVKMKIPILEKCTAEISGAAALSVLGFSAAIAGSYTMQAVLTSVIATGFIGLLFILNTMAIQHPFNACLGPNENQTRTLKLAASTGFISMAIAGLLGIGLNPGWWLVSLVGALCWVVAFKSFVSASFEEAASVKWSGLWPKEEEQ” as the sequence, how does the protein production read?
Its protein production is “failed”.

For “MSVADSYFDELFRNNDDPWAFKQRWYERRKRALTLAALPRERYRAIFEPGCANGELSADLAERCDMLVCCDTSTQAVELARQRLADVPHARVVQARLPHQWPAGQFDLIVFSELGYYLDAADLHRLIDCALAALSPDGQLLACHWRPDIEGCPLNAQAVHAILAERLSMHRLFSHHEQDFLLDLWSRDGLEHHHHHH”, which protein production is on record?
Its protein production is “failed”.

For “MSVAHENARRIISDILGKQNIERVWFVGCGGSLTGFWPGKYFLDCEASKLAVGYITSNEFVHATPKALGKNSVVILASQQGNTAETVAAARVAREKGAATIGLVYQPDTPLCEYSDYIIEYQWARYPETVDPAQQKAAYSLWLALEILAQTEGYAQYDELVSAFGRFSDVVHGAQRQVQEDAQRFAAEWKDEKVVYMMGSGPSFGAAHQESICILLEMQWINSASIHSGEYFHGPFEITEPGTPFILLQSSGRTRPLDDRAIRFIERYQGKLQLIDADKLGIQDLSTDVGEYFCGLLHNCVLDVYNLALATARNHPLTTRRYMWKVEY”, which protein production is on record?
Its protein production is “not failed”.

Which protein production does the source give for “MSVASLPSFLCLSQESSRRASARRESPSSPRTWAGWIPVTGTGMRECVVALCLLLTLIFAAASPALAFNPDEVLKDPVLEQRARNLTSQLRCMVCQNQSIDDSNAELARDLRVLVRERLVQGDSDKAVIDYVVSRYGEFVLLKPRLSLRTLLLWGAPIGLTLAGIFAVFVFSRRRATQERPQKLSADEEERIRNLIEK” here?
The protein production was “failed”.

From a protein production outcome set (Wang et al. 2014)
